Assay results as given in publication PMC3948749, “Engineering of Pyranose Dehydrogenase for Increased Oxygen Reactivity” (PLoS ONE, 2014).
Numbering of substitutions follows the chain as printed. Numbers in names are those of the source.

B1: AmPDH (Agaricus meleagris pyranose dehydrogenase, pdh1) (Macropsalliota meleagris) (protein)
chain: AITYQHPDDLPSGVDYDFIVAGGGTAGLVVASRLSENSNWKVLVIEAGPSNKDAFVTRVPGLASTLGAGSPIDWNYTTIPQDGLDGRSLDYPRAKILGGCSTHNGMVYTRGSKDDWNSWAGIIGDQGLGWDSILPAIKKAEKFTQDFTDQSVKGHIDPSVHGFDGKLSVSAAYSNISFNDLLFETTKELNAEFPFKLDMNDGKPIGLGWTQYTIDNHAERSSSATSYLESTGDNVHVLVNTLVTRVLSASGNGTDFRKVEFAVDANSPKKQLEAKKEVIVAGGVIASPQILMNSGIGERKVLQAVGIDTLIDNPSVGKNLSDQGATSVMFDTTLPSTDFDVDAALTEWTNSHTGPLARGARLNHLTFVRLPDDKLNGQDPSSGKNSPHIEFQFAQITPQVPTLGVPKQAPLPAANSYRLLLQLAVVNLYSISRGSISLSDNNPFTYPLIDLNMFKEDIDIAILREGIRSAGRMFSSKAFKNSVNKFVYPPADATSDEDLDAFLRSSTFSYVHGVGTLSMSPKGASWGVVNPDFKVKGTSGLRVVDASVIPHAPAAHTQLPVYAFAEYASALIAKSYN
notes: monomeric glycoprotein about 90 kDa, 64 kDa deglycosylated
B2: AmPDH (Agaricus meleagris pyranose dehydrogenase, pdh1) (Macropsalliota meleagris; H128Y) (protein)
chain: B1 chain with H103Y
notes: as for B1

Substrate: O=C1C(Cl)=CC(=Nc2ccc(O)cc2)C=C1Cl
Experiment: steady-state kinetics, DCIP reduction
Assay type: biochemical, Macropsalliota meleagris
Conditions: apparent, electron acceptor, 25 mM D-glucose as donor, pH 4, 30 °C
Description: steady-state kinetics, DCIP reduction on AmPDH (Agaricus meleagris pyranose dehydrogenase, pdh1)

| Protein | Km [µM] | kcat [s⁻¹] | kcat/Km [M⁻¹ s⁻¹] |
| --- | --- | --- | --- |
| B1 | 140 ± 10 | 40.7 ± 4.1 | 291000 |
| B2 | 20 ± 10 | 2.8 ± 0.5 | 140000 |
